From US20100322938A1 (COMPUGEN, published 2010) come the findings set out here.

The target in the assay is T1, CGEN-CL1 peptide FYFWMNGDRIDSLLENDRQQT [SEQ ID NO: 1] (human, acetylated at its N-terminus; amidated at its C-terminus).
T1 construct: Made by solid-phase synthesis (Pepscan); molecular weight 2690.1
T1 peptide: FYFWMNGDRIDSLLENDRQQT
The assay is described as follows: SPR competition (BIAcore), peptides preincubated 30 min at 10 uM each, injected over immobilized clusterin. As for the experimental part: Peptide-protein interaction was analyzed using surface plasmon resonance. Analysis of the interaction between CGEN-CL1 [SEQ ID NO:1] and recombinant human clusterin (Biovendor, Modrice, Czech republic cat no: RD172034100) was conducted using the BIAcore biosensor (Pharmacia Biosensor, Uppsala, Sweden). Clusterin was immobilized directly to a CM5 sensor chip (2000 resonance units (RU)). Solution containing either 10 μM of CGEN-CL1 [SEQ ID NO:1] peptide or a mixture of CGEN-CL1 and its partner helix (SEQ ID NO:5), 10 μM each, preincubated for 30 minutes at room temperature, was injected to the BIAcore. As a background, the solutions were also injected onto an empty flow cell with no immobilized ligand and the binding levels achieved were subtracted. Data was analyzed using BIAevaluation software.

B1: partner helix peptide RLTRKYNELLKSYQWKMLNTSS [SEQ ID NO: 5] (peptide)
peptide: Ac-RLTRKYNELLKSYQWKMLNTSS-NH2
notes: Made by solid-phase synthesis (Pepscan); molecular weight 2760.2; also called helix partner; counterpart helix peptide
B1: the binding result is “binds”.
